# T1: human IL-33 (human, Biotinylated in Example 2; the site is not stated.)
# T1 chain: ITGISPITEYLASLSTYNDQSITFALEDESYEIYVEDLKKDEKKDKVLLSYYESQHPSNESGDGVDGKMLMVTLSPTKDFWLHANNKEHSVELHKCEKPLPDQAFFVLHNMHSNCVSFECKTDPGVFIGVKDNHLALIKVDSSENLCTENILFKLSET
# T2: cynomolgus IL-33 (cynomolgus monkey, UniProt A0A2K5W3I1 112-269)
# T2 construct: also called cyno IL-33; cynomolgus monkey IL-33
# T2 sequence: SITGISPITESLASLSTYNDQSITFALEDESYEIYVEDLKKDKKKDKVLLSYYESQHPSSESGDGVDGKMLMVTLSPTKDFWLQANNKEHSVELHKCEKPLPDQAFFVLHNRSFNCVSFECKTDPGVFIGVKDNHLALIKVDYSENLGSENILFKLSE
# B1: 22A06-458 (antibody, human IgG1, kappa)
# heavy: QVQLVQSGAEVKKPGASVKVSCKASGYTFISYGMHWVRQAPGQGLEWMGEINPHGGSTSYAQKFKGRVTMTRDTSTSTVYMELSSLRSEDTAVYYCARPSAAYSHYLGIDLWGRGTLVTVSSASTKGPSVFPLAPSSKSTSGGTAALGCLVKDYFPEPVTVSWNSGALTSGVHTFPAVLQSSGLYSLSSVVTVPSSSLGTQTYICNVNHKPSNTKVDKKVEPKSCDKTHTCPPCPAPELLGGPSVFLFPPKPKDTLYITREPEVTCVVVDVSHEDPEVKFNWYVDGVEVHNAKTKPREEQYNSTYRVVSVLTVLHQDWLNGKEYKCKVSNKALPAPIEKTISKAKGQPREPQVYTLPPSRDELTKNQVSLTCLVKGFYPSDIAVEWESNGQPENNYKTTPPVLDSDGSFFLYSKLTVDKSRWQQGNVFSCSVMHEALHNHYTQKSLSLSPGK
# light: DIQMTQSPSSVSASVGDRVTITCRASQGISSWLAWYQQKPGKAPKLLIYAASRLQSGVPSRFSGSGSGTDFTLTISSLQPEDFATYYCQQANVFPLTFGGGTKVEIKRTVAAPSVFIFPPSDEQLKSGTASVVCLLNNFYPREAKVQWKVDNALQSGNSQESVTEQDSKDSTYSLSSTLTLSKADYEKHKVYACEVTHQGLSSPVTKSFNRGEC
# Columns and labels:
# human IL-33 [1] = target: T1, human IL-33; assay: cell-based or functional assay
# cFcgRIIb = target: T3, cFcgRIIb (cynomolgus monkey); assay: SPR (ProteOn XPR36), anti-poly-histidine IgG surface, antibody as analyte, equilibrium fit, 25 C
# T3 construct: extracellular domain
# cFcgRIIa = target: T4, cFcgRIIa (cynomolgus monkey); assay: as above
# T4 construct: extracellular domain; also called recombinant soluble cynomolgus monkey Fc gamma receptor IIa
# cFcgRIIIa = target: T5, cFcgRIIIa (cynomolgus monkey); assay: as above
# T5 construct: extracellular domain
# cynomolgus IL-33 = target: T2, cynomolgus IL-33; assay: MSD-SET solution equilibrium titration, 25 C, n = 3
# [2] = target: T6, cynomolgus recombinant neonatal receptor (FcRn) (cynomolgus monkey, UniProt Q8SPV9 24-297; Q8SPW0 21-119); assay: SPR (ProteOn XPR36), antibody captured by protein L, FcRn as analyte, equilibrium fit, pH 6.0, 25 C
# T6 construct: extracellular domain; beta-2-microglobulin is not mentioned; also called cyno FcRn; cynomolgus monkey FcRn
# human IL-33 [3] = target: T1, human IL-33; assay: cell-based or functional assay
# human IL-33 [4] = target: T1, human IL-33; assay: cell-based or functional assay
# human IL-33 [5] = target: T1, human IL-33; assay: cell-based or functional assay
# T6 sequence (Q8SPV9 24-297 limits assumed, chain 1 of 2): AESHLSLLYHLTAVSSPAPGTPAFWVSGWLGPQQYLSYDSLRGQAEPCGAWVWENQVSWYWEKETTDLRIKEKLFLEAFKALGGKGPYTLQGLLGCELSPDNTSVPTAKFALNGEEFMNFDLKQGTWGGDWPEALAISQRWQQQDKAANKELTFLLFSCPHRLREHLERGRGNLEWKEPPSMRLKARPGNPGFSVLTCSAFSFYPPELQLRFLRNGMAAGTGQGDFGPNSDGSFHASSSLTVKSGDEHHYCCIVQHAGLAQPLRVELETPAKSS
# T6 sequence (Q8SPW0 21-119 limits assumed, chain 2 of 2): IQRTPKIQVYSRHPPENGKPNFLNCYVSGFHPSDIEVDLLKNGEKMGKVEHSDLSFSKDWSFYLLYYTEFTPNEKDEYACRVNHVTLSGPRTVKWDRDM
# T5 sequence (Q8SPW2 17-208): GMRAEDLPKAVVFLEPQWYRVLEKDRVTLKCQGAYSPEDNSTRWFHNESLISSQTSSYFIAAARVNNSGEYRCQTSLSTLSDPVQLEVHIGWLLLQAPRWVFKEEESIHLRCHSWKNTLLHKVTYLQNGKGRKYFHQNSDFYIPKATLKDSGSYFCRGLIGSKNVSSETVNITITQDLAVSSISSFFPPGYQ
binder,measurement,setting,value
B1,"pIC50, inhibition of IL-33 (15 pM) induced superoxide generation from eosinophils, pre-complexed, N = 7",human IL-33 [1],10.6
same,Kd,cFcgRIIb,1100 nM
same,Kd,cFcgRIIa,2110 nM
same,Kd,cFcgRIIIa,119 nM
same,Kd,cynomolgus IL-33,0.0275 nM
same,Kd,[2],24.7 nM
same,"IC50, inhibition of IL-33 (500 pM) induced IL-6 secretion from HUVECs, pre-complexed, Mean",human IL-33 [3],217 pM
same,"IC50, inhibition of IL-33 (500 pM) induced IL-6 secretion from HUVECs, pre-complexed, P7",human IL-33 [3],214 pM
same,"IC50, inhibition of IL-33 (500 pM) induced IL-6 secretion from HUVECs, pre-complexed, P8",human IL-33 [3],204 pM
same,"IC50, inhibition of IL-33 (500 pM) induced IL-6 secretion from HUVECs, pre-complexed, P9",human IL-33 [3],234 pM
same,"IC50, inhibition of IL-33 (500 pM) induced IL-8 secretion from HUVECs, pre-complexed, Mean",human IL-33 [3],390 pM
same,"IC50, inhibition of IL-33 (500 pM) induced IL-8 secretion from HUVECs, pre-complexed, P7",human IL-33 [3],489 pM
same,"IC50, inhibition of IL-33 (500 pM) induced IL-8 secretion from HUVECs, pre-complexed, P8",human IL-33 [3],278 pM
same,"IC50, inhibition of IL-33 (500 pM) induced IL-8 secretion from HUVECs, pre-complexed, P9",human IL-33 [3],402 pM
same,"pIC50, inhibition of IL-33 (500 pM) induced IL-6 secretion from HUVECs, pre-complexed, Mean",human IL-33 [3],9.66
same,"pIC50, inhibition of IL-33 (500 pM) induced IL-6 secretion from HUVECs, pre-complexed, P7",human IL-33 [3],9.67
same,"pIC50, inhibition of IL-33 (500 pM) induced IL-6 secretion from HUVECs, pre-complexed, P8",human IL-33 [3],9.69
same,"pIC50, inhibition of IL-33 (500 pM) induced IL-6 secretion from HUVECs, pre-complexed, P9",human IL-33 [3],9.63
same,"pIC50, inhibition of IL-33 (500 pM) induced IL-8 secretion from HUVECs, pre-complexed, Mean",human IL-33 [3],9.42
same,"pIC50, inhibition of IL-33 (500 pM) induced IL-8 secretion from HUVECs, pre-complexed, P7",human IL-33 [3],9.31
same,"pIC50, inhibition of IL-33 (500 pM) induced IL-8 secretion from HUVECs, pre-complexed, P8",human IL-33 [3],9.56
same,"pIC50, inhibition of IL-33 (500 pM) induced IL-8 secretion from HUVECs, pre-complexed, P9",human IL-33 [3],9.4
same,"IC50, inhibition of 10 ng/mL IL-33 induced IFN-γ secretion from whole blood, non-pre-complexed, Mean",human IL-33 [4],0.37 nM
same,"IC50, inhibition of 10 ng/mL IL-33 induced IFN-γ secretion from whole blood, non-pre-complexed, donor #32871",human IL-33 [4],0.21 nM
same,"IC50, inhibition of 10 ng/mL IL-33 induced IFN-γ secretion from whole blood, non-pre-complexed, donor #90237",human IL-33 [4],0.73 nM
same,"IC50, inhibition of 10 ng/mL IL-33 induced IFN-γ secretion from whole blood, non-pre-complexed, donor #91680",human IL-33 [4],0.43 nM
same,"IC50, inhibition of 10 ng/mL IL-33 induced IFN-γ secretion from whole blood, non-pre-complexed, donor #91955",human IL-33 [4],0.08 nM
same,"IC50, inhibition of 10 ng/mL IL-33 induced IFN-γ secretion from whole blood, non-pre-complexed, donor #91986",human IL-33 [4],0.36 nM
same,"IC50, inhibition of 10 ng/mL IL-33 induced IFN-γ secretion from whole blood, non-pre-complexed, donor #92251",human IL-33 [4],0.42 nM
same,"pIC50, inhibition of 10 ng/mL IL-33 induced IFN-γ secretion from whole blood, non-pre-complexed, Mean",human IL-33 [4],9.51
same,"pIC50, inhibition of 10 ng/mL IL-33 induced IFN-γ secretion from whole blood, non-pre-complexed, donor #32871",human IL-33 [4],9.67
same,"pIC50, inhibition of 10 ng/mL IL-33 induced IFN-γ secretion from whole blood, non-pre-complexed, donor #90237",human IL-33 [4],9.13
same,"pIC50, inhibition of 10 ng/mL IL-33 induced IFN-γ secretion from whole blood, non-pre-complexed, donor #91680",human IL-33 [4],9.37
same,"pIC50, inhibition of 10 ng/mL IL-33 induced IFN-γ secretion from whole blood, non-pre-complexed, donor #91955",human IL-33 [4],10.1
same,"pIC50, inhibition of 10 ng/mL IL-33 induced IFN-γ secretion from whole blood, non-pre-complexed, donor #91986",human IL-33 [4],9.44
same,"pIC50, inhibition of 10 ng/mL IL-33 induced IFN-γ secretion from whole blood, non-pre-complexed, donor #92251",human IL-33 [4],9.37
same,"IC50, inhibition of 1 ng/mL human IL-33 induced IL-6 production, mouse bone marrow-derived mast cells",human IL-33 [5],0.0312 nM
same,"IC50, inhibition of 1 ng/mL human IL-33 induced IL-13 production, mouse bone marrow-derived mast cells",human IL-33 [5],0.028 nM
same,"IC50, inhibition of 1 ng/mL human IL-33 induced IL-18 production, mouse bone marrow-derived mast cells",human IL-33 [5],0.0613 nM
same,"IC50, inhibition of 1 ng/mL human IL-33 induced TNF-α production, mouse bone marrow-derived mast cells",human IL-33 [5],0.0374 nM
same,"pIC50, inhibition of 1 ng/mL human IL-33 induced IL-6 production, mouse bone marrow-derived mast cells",human IL-33 [5],10.5
same,"pIC50, inhibition of 1 ng/mL human IL-33 induced IL-13 production, mouse bone marrow-derived mast cells",human IL-33 [5],0.55
same,"pIC50, inhibition of 1 ng/mL human IL-33 induced IL-18 production, mouse bone marrow-derived mast cells",human IL-33 [5],10.2
same,"pIC50, inhibition of 1 ng/mL human IL-33 induced TNF-α production, mouse bone marrow-derived mast cells",human IL-33 [5],10.4
